The results in this text go back to PMC2120718.

The nature of the data set: flow cytometry of surface TCR, anti-CD3 epsilon UCHT1. As to conditions: glycan lost; control: JGN transfected with wild-type CD3 gamma. For orientation: A flow cytometer gives signals particle by particle.

As for CD3 gamma: N30Q, the expression_or_secretion result is on record as “no change”.

For the substance CD3 gamma: N70Q, the expression_or_secretion result was “no change”.
